The target in assay [1] is HLA-A*02:01. Kind of assay: IEDB peptide-MHC binding, cellular MHC/competitive/fluorescence; ≥ and ≤ were set here for values at or beyond the usual limits of such assays.
The target of another assay is HLA-C*15:02. Kind of assay: IEDB peptide-MHC binding, purified MHC/direct/fluorescence; filed as Kd, often an IC50 or EC50 that approximates it; ≥ and ≤ were set here for values at or beyond the usual limits of such assays.
A further assay deals with HLA-C*05:01. Described as above.
Assay [2] has as its target HLA-A*11:01. Kind of assay: IEDB peptide-MHC binding, purified MHC/competitive/fluorescence; ≥ and ≤ were set here for values at or beyond the usual limits of such assays. The following applies: source organism: Vaccinia virus WR.
Assay [3] has as its target HLA-B*15:01. The assay is described as above. The following applies: source organism: Vaccinia virus WR.
The target in a further assay is HLA-B*15:03. Kind of assay: IEDB peptide-MHC binding, purified MHC/competitive/radioactivity; filed as Kd, often an IC50 or EC50 that approximates it; ≥ and ≤ were set here for values at or beyond the usual limits of such assays. The following applies: source organism: Vaccinia virus WR.
In assay [4] the target is HLA-A*02:01. Kind of assay: IEDB peptide-MHC binding, purified MHC/direct/fluorescence; filed as Kd, often an IC50 or EC50 that approximates it; ≥ and ≤ were set here for values at or beyond the usual limits of such assays.
The target in another assay is HLA-B*15:17. The description is as above.
The target of another assay is HLA-B*58:01. Described as above. The conditions noted are these: source organism: Camelpox virus M-96.
For a further assay, the target named is HLA-B*48:01. The description is as above. The conditions noted are these: source organism: Camelpox virus M-96.
The target in a further assay is HLA-B*08:03. Described as above. The conditions noted are these: source organism: Variola virus.
The target in the next assay is HLA-B*15:09. The description is as above. The conditions noted are these: source organism: Variola virus.
The next assay concerns the target HLA-A*01:01. The description is as above. The following applies: source organism: Camelpox virus M-96.
Another assay addresses HLA-B*08:01. Described as above.
The next assay deals with HLA-B*46:01. Described as above.
A further assay deals with HLA-B*57:01. Described as above.
The next assay concerns the target HLA-A*69:01. The description is as above.
The target of another assay is HLA-B*07:02. The description is as above. The conditions noted are these: source organism: Camelpox virus M-96.
The next assay addresses HLA-A*68:02. The assay is described as above.
The next assay has as its target HLA-B*27:05. The description is as above. The following applies: source organism: Camelpox virus M-96.
Assay [5] addresses HLA-B*15:01. The description is as above.
The next assay addresses HLA-A*31:01. Kind of assay: IEDB peptide-MHC binding, purified MHC/competitive/fluorescence; filed as Kd, often an IC50 or EC50 that approximates it; ≥ and ≤ were set here for values at or beyond the usual limits of such assays. The following applies: source organism: Vaccinia virus WR.
Assay [6] concerns the target HLA-A*26:01. The description is as above. The following applies: source organism: Vaccinia virus WR.
Another assay addresses HLA-A*30:01. Described as above. The following applies: source organism: Vaccinia virus WR.
The target of a further assay is HLA-B*35:01. The assay is described as above. The conditions noted are these: source organism: Vaccinia virus WR.
In assay [7] the target is HLA-A*11:01. The description is as above. The conditions noted are these: source organism: Vaccinia virus WR.
Another assay addresses HLA-A*26:02. Described as above. The conditions noted are these: source organism: Vaccinia virus WR.
A further assay addresses HLA-C*14:02. Kind of assay: IEDB peptide-MHC binding, purified MHC/direct/fluorescence; filed as Kd, often an IC50 or EC50 that approximates it; ≥ and ≤ were set here for values at or beyond the usual limits of such assays.
The target of a further assay is HLA-C*12:03. The assay is described as above. The conditions noted are these: source organism: Giardia lamblia ATCC 50803.
Another assay concerns the target HLA-A*02:03. The description is as above. The following applies: source organism: Listeria monocytogenes serotype 4b str. H7858.
The target of assay [8] is HLA-A*26:01. The description is as above. The following applies: source organism: Listeria monocytogenes serotype 4b str. H7858.
The target in the next assay is HLA-A*02:12. Described as above. The following applies: source organism: Listeria monocytogenes serotype 4b str. H7858.
Another assay concerns the target HLA-A*29:02. Described as above. The following applies: source organism: Listeria monocytogenes serotype 4b str. H7858.
For the next assay, the target named is HLA-B*18:01. Described as above. The conditions noted are these: source organism: Listeria monocytogenes serotype 4b str. H7858.
The target in assay [9] is HLA-A*24:03. The assay is described as above. The following applies: source organism: Listeria monocytogenes serotype 4b str. H7858.
In another assay the target is HLA-B*51:01. The assay is described as above. The conditions noted are these: source organism: Listeria monocytogenes serotype 4b str. H7858.
The target in a further assay is HLA-A*02:11. Described as above. The conditions noted are these: source organism: Listeria monocytogenes serotype 4b str. H7858.
A further assay deals with HLA-A*03:01. Described as above. The conditions noted are these: source organism: Listeria monocytogenes serotype 4b str. H7858.
For a further assay, the target named is HLA-B*27:03. The description is as above. The following applies: source organism: Listeria monocytogenes serotype 4b str. H7858.
The target of another assay is HLA-A*02:19. The description is as above. The following applies: source organism: Listeria monocytogenes serotype 4b str. H7858.
A further assay has as its target HLA-A*02:16. The description is as above. The conditions noted are these: source organism: Listeria monocytogenes serotype 4b str. H7858.
Assay [10] concerns the target HLA-A*24:03. Kind of assay: IEDB peptide-MHC binding, purified MHC/competitive/fluorescence; filed as Kd, often an IC50 or EC50 that approximates it; ≥ and ≤ were set here for values at or beyond the usual limits of such assays. The conditions noted are these: source organism: Bacillus cereus G9241.
The mark [11] stands for this setting: source organism: Burkholderia pseudomallei 1710b.
Setting [12] is: source organism: Camelpox virus M-96.
The mark [13] stands for this setting: source organism: Giardia lamblia ATCC 50803.
Where [14] appears, read: source organism: Listeria monocytogenes serotype 4b str. H7858.

For LGIVCPI, the IC50 (usually the concentration that inhibits the measured activity by half) with HLA-A*02:01 [1] (source organism: Human papillomavirus 16) is 0.7 µM.

Regarding KTADVTVVF, the Kd (in general, the equilibrium constant for the complex coming apart) with HLA-C*15:02 (setting [11]) was determined as 0.253 µM; with HLA-C*05:01 (setting [11]), 0.06 µM.

Turning to IQFMHEQGY, the IC50 with HLA-A*11:01 [2] is at least 108 µM; in the assay with HLA-B*15:01 [3], 6.83 µM. Also, the Kd in the assay with HLA-B*15:03 was 0.00366 µM; with HLA-A*02:01 [4] (setting [12]), at least 20 µM; with HLA-B*15:17 (setting [12]), 0.29 µM; with HLA-B*58:01, at least 20 µM; with HLA-B*48:01 it was at least 20 µM; with HLA-B*08:03, at least 20 µM. In addition, the dissociation constant (Kd) with HLA-B*15:09 is at least 20 µM; with HLA-A*01:01, at least 20 µM; in the assay with HLA-B*08:01 (source organism: Variola virus), at least 20 µM; in the assay with HLA-B*46:01 (setting [12]), at least 20 µM; with HLA-B*57:01 (setting [12]), 1.96 µM; with HLA-A*69:01 (setting [12]), at least 20 µM. The Kd in the assay with HLA-B*07:02 was at least 20 µM; in the assay with HLA-A*68:02 (setting [12]), at least 20 µM; with HLA-B*27:05, 0.929 µM; with HLA-B*15:01 [5] (setting [12]), 0.052 µM; with HLA-A*31:01, at least 20 µM; in the assay with HLA-A*26:01 [6] it was at least 20 µM. Besides, the Kd in the assay with HLA-A*30:01 is 0.0024 µM; in the assay with HLA-B*35:01, 0.104 µM; with HLA-A*11:01 [7], at least 20 µM; with HLA-A*26:02, at least 20 µM.

For APAAAAQAV, the Kd in the assay with HLA-C*14:02 (source organism: Mycobacterium tuberculosis C) turned out to be 3.08 µM.

Regarding YLYLRPYAL, the Kd in the assay with HLA-C*12:03 came out at 0.029 µM; in the assay with HLA-C*15:02 (setting [13]) it was 3.05 µM; with HLA-C*14:02 (setting [13]), 0.151 µM; with HLA-B*08:01 (setting [13]), 0.016 µM.

In the case of FRDEAGAIL, the equilibrium dissociation constant (Kd) with HLA-A*02:01 [4] (setting [14]) is at least 20 µM; with HLA-A*02:03 it was at least 20 µM; in the assay with HLA-A*26:01 [8], at least 20 µM; with HLA-B*15:17 (setting [14]) it was at least 20 µM; with HLA-A*02:12, at least 20 µM; in the assay with HLA-C*05:01 (source organism: Listeria monocytogenes FSL R2-503), 2.21 µM. Also, the equilibrium dissociation constant (Kd) with HLA-A*29:02, with HLA-B*18:01, with HLA-A*24:03 [9], with HLA-B*51:01, in the assay with HLA-A*02:11 and with HLA-A*03:01 was at least 20 µM each time. Besides, the dissociation constant (Kd) with HLA-B*46:01 (setting [14]), with HLA-B*57:01 (setting [14]), in the assay with HLA-A*69:01 (setting [14]), with HLA-A*68:02 (setting [14]), with HLA-B*27:03 and with HLA-A*02:19 was at least 20 µM throughout. For the same substance, the Kd with HLA-A*02:16 and in the assay with HLA-B*15:01 [5] (setting [14]) was at least 20 µM throughout.

ALGGGATGV displayed a concentration for half-maximal inhibition (IC50) with HLA-A*02:01 [1] (source organism: Mycobacterium tuberculosis) of 1.4 µM.

Take VLDVGDAYFSV: the IC50 with HLA-A*02:01 [1] (source organism: Human immunodeficiency virus 1) is 7 µM.

As to KFIILLTSF, the results for the Kd with HLA-C*14:02 (source organism: Bacillus cereus G9241) and with HLA-A*24:03 [10] were 1.23 µM and 0.159 µM, respectively.

Source of the values: the Immune Epitope Database (IEDB).
